Source: patent US20060252116A1, “Icam-4 binding sites” (priority 2002, published 2006)

B1: F18A mutant: human ICAM-4Fc fusion protein with point mutation F18A (protein)
chain: AQSPKGSPLAPSGTSVPAWVRMSPEFVAVQPGKSVQLNCSNSCPQPQNSSLRTPLRQGKTLRGPGWVSYQLLDVRAWSSLAHCLVTCAGKTRWATSRITAYKPPHSVILEPPVLKGRKYTLRCHVTQVFPVGYLVVTLRHGSRVIYSESLERFTGLDLANVTLTYEFAAGPRDFWQPVICHARLNLDGLVVRNSSAPITLMLAWSPAPTA
modifications: left off: a dimerising Fc or GST
notes: human ICAM-4Fc fusion protein with point mutation F18A
B2: K118E mutant: human ICAM-4Fc fusion protein with point mutation K118E (protein)
chain: AQSPKGSPLAPSGTSVPFWVRMSPEFVAVQPGKSVQLNCSNSCPQPQNSSLRTPLRQGKTLRGPGWVSYQLLDVRAWSSLAHCLVTCAGKTRWATSRITAYKPPHSVILEPPVLKGREYTLRCHVTQVFPVGYLVVTLRHGSRVIYSESLERFTGLDLANVTLTYEFAAGPRDFWQPVICHARLNLDGLVVRNSSAPITLMLAWSPAPTA
modifications: left off: a dimerising Fc or GST
notes: human ICAM-4Fc fusion protein with point mutation K118E
B3: T162V mutant: human ICAM-4Fc fusion protein with point mutation T162V (protein)
chain: AQSPKGSPLAPSGTSVPFWVRMSPEFVAVQPGKSVQLNCSNSCPQPQNSSLRTPLRQGKTLRGPGWVSYQLLDVRAWSSLAHCLVTCAGKTRWATSRITAYKPPHSVILEPPVLKGRKYTLRCHVTQVFPVGYLVVTLRHGSRVIYSESLERFTGLDLANVVLTYEFAAGPRDFWQPVICHARLNLDGLVVRNSSAPITLMLAWSPAPTA
modifications: left off: a dimerising Fc or GST
notes: human ICAM-4Fc fusion protein with point mutation T162V
B4: S96A mutant: human ICAM-4Fc fusion protein with point mutation S96A (protein)
chain: AQSPKGSPLAPSGTSVPFWVRMSPEFVAVQPGKSVQLNCSNSCPQPQNSSLRTPLRQGKTLRGPGWVSYQLLDVRAWSSLAHCLVTCAGKTRWATARITAYKPPHSVILEPPVLKGRKYTLRCHVTQVFPVGYLVVTLRHGSRVIYSESLERFTGLDLANVTLTYEFAAGPRDFWQPVICHARLNLDGLVVRNSSAPITLMLAWSPAPTA
modifications: left off: a dimerising Fc or GST
notes: human ICAM-4Fc fusion protein with point mutation S96A
B5: T95V mutant: human ICAM-4Fc fusion protein with point mutation T95V (protein)
chain: AQSPKGSPLAPSGTSVPFWVRMSPEFVAVQPGKSVQLNCSNSCPQPQNSSLRTPLRQGKTLRGPGWVSYQLLDVRAWSSLAHCLVTCAGKTRWAVSRITAYKPPHSVILEPPVLKGRKYTLRCHVTQVFPVGYLVVTLRHGSRVIYSESLERFTGLDLANVTLTYEFAAGPRDFWQPVICHARLNLDGLVVRNSSAPITLMLAWSPAPTA
modifications: left off: a dimerising Fc or GST
notes: human ICAM-4Fc fusion protein with point mutation T95V
B6: N160A mutant: human ICAM-4Fc fusion protein with point mutation N160A (protein)
chain: AQSPKGSPLAPSGTSVPFWVRMSPEFVAVQPGKSVQLNCSNSCPQPQNSSLRTPLRQGKTLRGPGWVSYQLLDVRAWSSLAHCLVTCAGKTRWATSRITAYKPPHSVILEPPVLKGRKYTLRCHVTQVFPVGYLVVTLRHGSRVIYSESLERFTGLDLAAVTLTYEFAAGPRDFWQPVICHARLNLDGLVVRNSSAPITLMLAWSPAPTA
modifications: left off: a dimerising Fc or GST
notes: human ICAM-4Fc fusion protein with point mutation N160A
B7: R92E mutant: human ICAM-4Fc fusion protein with point mutation R92E (protein)
chain: AQSPKGSPLAPSGTSVPFWVRMSPEFVAVQPGKSVQLNCSNSCPQPQNSSLRTPLRQGKTLRGPGWVSYQLLDVRAWSSLAHCLVTCAGKTEWATSRITAYKPPHSVILEPPVLKGRKYTLRCHVTQVFPVGYLVVTLRHGSRVIYSESLERFTGLDLANVTLTYEFAAGPRDFWQPVICHARLNLDGLVVRNSSAPITLMLAWSPAPTA
modifications: left off: a dimerising Fc or GST
notes: human ICAM-4Fc fusion protein with point mutation R92E
B8: R97E mutant: human ICAM-4Fc fusion protein with point mutation R97E (protein)
chain: AQSPKGSPLAPSGTSVPFWVRMSPEFVAVQPGKSVQLNCSNSCPQPQNSSLRTPLRQGKTLRGPGWVSYQLLDVRAWSSLAHCLVTCAGKTRWATSEITAYKPPHSVILEPPVLKGRKYTLRCHVTQVFPVGYLVVTLRHGSRVIYSESLERFTGLDLANVTLTYEFAAGPRDFWQPVICHARLNLDGLVVRNSSAPITLMLAWSPAPTA
modifications: left off: a dimerising Fc or GST
notes: human ICAM-4Fc fusion protein with point mutation R97E
B9: V20T mutant: human ICAM-4Fc fusion protein with point mutation V20T (protein)
chain: AQSPKGSPLAPSGTSVPFWTRMSPEFVAVQPGKSVQLNCSNSCPQPQNSSLRTPLRQGKTLRGPGWVSYQLLDVRAWSSLAHCLVTCAGKTRWATSRITAYKPPHSVILEPPVLKGRKYTLRCHVTQVFPVGYLVVTLRHGSRVIYSESLERFTGLDLANVTLTYEFAAGPRDFWQPVICHARLNLDGLVVRNSSAPITLMLAWSPAPTA
modifications: left off: a dimerising Fc or GST
notes: human ICAM-4Fc fusion protein with point mutation V20T
B10: W19A mutant: human ICAM-4Fc fusion protein with point mutation W19A (protein)
chain: AQSPKGSPLAPSGTSVPFAVRMSPEFVAVQPGKSVQLNCSNSCPQPQNSSLRTPLRQGKTLRGPGWVSYQLLDVRAWSSLAHCLVTCAGKTRWATSRITAYKPPHSVILEPPVLKGRKYTLRCHVTQVFPVGYLVVTLRHGSRVIYSESLERFTGLDLANVTLTYEFAAGPRDFWQPVICHARLNLDGLVVRNSSAPITLMLAWSPAPTA
modifications: left off: a dimerising Fc or GST
notes: human ICAM-4Fc fusion protein with point mutation W19A
B11: A94L mutant: human ICAM-4Fc fusion protein with point mutation A94L (protein)
chain: AQSPKGSPLAPSGTSVPFWVRMSPEFVAVQPGKSVQLNCSNSCPQPQNSSLRTPLRQGKTLRGPGWVSYQLLDVRAWSSLAHCLVTCAGKTRWLTSRITAYKPPHSVILEPPVLKGRKYTLRCHVTQVFPVGYLVVTLRHGSRVIYSESLERFTGLDLANVTLTYEFAAGPRDFWQPVICHARLNLDGLVVRNSSAPITLMLAWSPAPTA
modifications: left off: a dimerising Fc or GST
notes: human ICAM-4Fc fusion protein with point mutation A94L
B12: W66A mutant: human ICAM-4Fc fusion protein with point mutation W66A (protein)
chain: AQSPKGSPLAPSGTSVPFWVRMSPEFVAVQPGKSVQLNCSNSCPQPQNSSLRTPLRQGKTLRGPGAVSYQLLDVRAWSSLAHCLVTCAGKTRWATSRITAYKPPHSVILEPPVLKGRKYTLRCHVTQVFPVGYLVVTLRHGSRVIYSESLERFTGLDLANVTLTYEFAAGPRDFWQPVICHARLNLDGLVVRNSSAPITLMLAWSPAPTA
modifications: left off: a dimerising Fc or GST
notes: human ICAM-4Fc fusion protein with point mutation W66A

Each molecule was assayed on HT1080 cells (αv integrin) (assay: Adhesion of HT1080 cells to mutant human ICAM-4Fc). Conditions: FIG. 4; single residue mutants of human ICAM-4Fc, titrated coating concentration.
Format: cell-based
Method: Cell adhesion assays were performed as described in Spring et al. 2001 (supra). Immulon4 96 well plates (Dynex Technologies, Billingshurst, United Kingdom) were coated with 1 μg/well goat-antihuman-Fc (Sigma, Poole, United Kingdom) for 24 hours at 4° C., washed three times with PBS and coated with an Fc fusion ICAM-4 protein for 18 hours at 4° C. before blocking with 0.4% BSA PBS for 2 hours at 22° C. Cells were labelled with 10 μg/ml 2′,7′-bis-(2-carboxyethyl)-5-(and-6-) carboxyfluorescein acetoxymethyl ester in assay buffer (IMEM, 2 mM EGTA, 10 μg/ml human ivIgG) for 15 minutes at 37° C. HT1080 cells were activated with 80 μM phorbol myristate acetate prior to both cells being washed with assay buffer containing 2 mM Mn^2+. Cells, at 5×10^4 cells per well, were added to the ICAM-4Fc-coated plates for 30 minutes at 37° C., prior to being given repeated washes in assay buffer and read on a fluorescence microplate reader (excitation 485 nm, emission 530 nm). The percentage of bound cells was calculated after each wash. Peptide inhibition was performed by incubating the cells with 500 μM peptide at 0° C. for 15 minutes ahead of their addition, still in the presence of 500 μM peptide to the ICAM-4Fc coated plates. In peptide inhibition studies the appropriate ICAM-4Fc coating concentration for each cell line was pre-determined by titration of ICAM-4Fc and the lowest concentration at which maximal binding was achieved was used to coat the plates
Point mutations were inserted into ICAM-4 in pIg vector (see Simmons D L, 1993, Cloning cell surface molecules by transient expression in mammalian cells, In: Hartley D A, ed. Cellular interactions in development. New York, N.Y.:IRL press, 93-127) by PCR amplification over two stages. Oligonucleotides (see “Mutagenesis primers” below) containing mismatched bases, together with 5′-[…] (SEQ ID NO: 14) and 3′-[…] (SEQ ID NO: 15) primers were used to generate two overlapping products. Following gel purification the two overlapping PCR products were annealed together before final amplification using the 5′ and 3′ primers. The final PCR product was restricted and ligated into pIg vector. All mutant clones were verified by sequence analysis. Mutant ICAM-4Fc proteins were expressed in COS-7 cells as described in Simmons D L (1993, supra), and purified from culture supernatant on protein A-Sepharose.

| Molecule | adhesion of HT1080 cells to mutant ICAM-4Fc compared with wild-type |
| --- | --- |
| B1 | decrease in binding |
| B2 | decrease the level of adhesion |
| B3 | elevated level of adhesion |
| B4 | decrease in binding |
| B5 | decrease in binding |
| B6 | elevated level of adhesion |
| B7 | decrease in binding |
| B8 | decrease in binding |
| B9 | decrease in binding |
| B10 | decrease in binding |
| B11 | decrease in binding |
| B12 | decrease the level of adhesion |
